Measurements reported in paper PMC6168461, “Molecular architecture and regulation of BCL10-MALT1 filaments” (Nature Communications, 2018).
Blank lines part the entries; values can stand above or below the molecule they belong to.

Tests used:
[1] = target: human BCL10 (full length), GST-tag removed (human) (UniProt O95999); test: cryo-EM structure; helical filaments of BCL10 (full length)-MALT1 (T29-G722); complex at 1 mg/ml, PreScission protease overnight at 12 °C, filaments separated by SEC; core map at 4.9 Å, whole assembly at 5.9 Å
[2] = target: the molecule itself; test: as above

- stoichiometry N [1]: 1
Molecule: human MALT1 isoform B (T29-G722), in the filament sample after PreScission treatment (domain or fragment)

B1: human BCL10 (full length), GST-tag removed (natural protein, UniProt O95999 1-233, looked up)
chain: MEPTAPSLTEEDLTEVKKDALENLRVYLCEKIIAERHFDHLRAKKILSREDTEEISCRTSSRKRAGKLLDYLQENPKGLDTLVESIRREKTQNFLIQKITDEVLKLRNIKLEHLKGLKCSSCEPFPDGATNNLSRSNSDESNFSEKLRASTVMYHPEGESSTTPFFSTNSSLNLPVLEVGRTENTIFSSTTLPRPGDPGAPPLPPDLQLEEEGTCANSSEMFLPLRSRTVSRQ
notes: BCL10 (B cell lymphoma 10), human, full length; Forms helical filaments together with MALT1 (T29-G722); only residues 10-115 are modelled in the map; also called B cell lymphoma 10; BCL10 wt; not shown: GST, N-terminal, cleaved
- binding result [2]: binds
